{"source": "the domain aggregation screens of Martell et al. (2025)", "data": [{"assay": "soluble fraction after stress (log2 fold change); higher = more stays soluble; pooled small domains, quantitative proteomics", "conditions": "stress: pH 4", "summary_of_the_method": "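With high-throughput quantitative proteomics, pooled custom libraries of small protein domains were measured after pH 4 stress. Each domain's soluble amount after the stress gives a fold change taken as aggregation propensity. Higher log2 values mean more of the domain stayed soluble.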", "values": [{"sequence": "HMFRPDYYEILQVDRHASPEVITAAYRQLLSIYNSEQDGNKQMIKLIQEAYGVLGDSQDRWLYDSWLDNN", "soluble fraction (log2)": -1.37}, {"sequence": "HMFRSNAERAAHLASALPRAEAELAALQARGAATSENIYLRSSYFDALRYTEELRAAKRAQDALQGA", "soluble fraction (log2)": 0.0123}, {"sequence": "HMFSAASSQISSYVRSVVDKAQTYEQAYEILAKNPLGFKLDALEDELFRIIANAEILGADDDE", "soluble fraction (log2)": -1.24}, {"sequence": "HMFSNATISGLKAGALVRVYNISGVAVSTLTADAEGKVSVDLNNLPKGVYILSTPSKSFKVLN", "soluble fraction (log2)": 0.176}, {"sequence": "HMFSWRQHLDHFGFSDEIKKRLADAVFLNDDWNEIDRGVLTKEELLARFIENDPGIEKEIYMVMENIN", "soluble fraction (log2)": -1.78}, {"sequence": "HMFYPIAHTLTKLNIRSGPGEQYQKLATFENNHDLVVLTQQNEWVQVRGKSDEQVIIGWVHSSFLSPT", "soluble fraction (log2)": -1.33}, {"sequence": "HMFYQLTENQRRILSSLEQNPRVSAAHLAEEIGISSRKVENNLKKLKEIGLLQRHGSPRKGYWSINQGW", "soluble fraction (log2)": 0.15}, {"sequence": "HMGAAAQLLHAVVLRVPAEDTMKFVSETPELRRYLGAPLGPTAALVRPGQEQELAAALQAHGILVEFDE", "soluble fraction (log2)": 0.12}, {"sequence": "HMGAAITEAEAKQIALDHAGVSESETERMRVKLGRDDGVQEYEVNFYVGNREYDYDINAATGEIRSHDSE", "soluble fraction (log2)": 0.22}, {"sequence": "HMGADPTTWPEIDAFVGRVAVTATGLFPSGQVEIDGRRFEARLAFGVAEPGARVVVRRRTDFGLLVEKETR", "soluble fraction (log2)": -0.531}, {"sequence": "HMGADRLVGMTAIVTATIDPNDTDRKGRVQVEGEVWSALSDGRLIITEGSKVRITEMHGTRVRVEAI", "soluble fraction (log2)": -0.884}, {"sequence": "HMGAEWTEMRVWTSTSGSKVTAEASSLTNGQVTLETKSGKRITLSIRKLVEADQKFLEAHFSK", "soluble fraction (log2)": 0.101}, {"sequence": "HMGAGLLEPEPLKIEIQETQERLQKLQKALERDTETADSKERIKRAIEAHKARISQLQGLIE", "soluble fraction (log2)": 0.0704}, {"sequence": "HMGAKVFTVPNLIGKYAIEAGIILKKEGLSEGEVKEENSDKYAAGQIIDQYPAADSPAKENDKINYVVSIG", "soluble fraction (log2)": -0.0221}, {"sequence": "HMGANSAYMAMRDRIQQRLLAELSPGVTRSDTAEVRRVVERIFNETTAELGLPLSRLERNDIFDLVLADIL", "soluble fraction (log2)": -1.72}, {"sequence": "HMGAPLAVGDSVRVVVSGPRAFVYTAPNGALSGAVRNGAAFTVLELSPDNTWARIGSGEWIKVEFLATG", "soluble fraction (log2)": -0.373}, {"sequence": "HMGATYSQFLDQVDGGNVQKVTFSGDMRSGTNQISYTTRSGQSATITAPMDRDLINILRAKNVEIVQEEP", "soluble fraction (log2)": 0.22}, {"sequence": "HMGAWQQTGFFRNRENAESLAEVLRQRGFSPVVREDTRPSGTVYYAVLVPDDGTTAARLKDAGIDSYPV", "soluble fraction (log2)": 0.367}, {"sequence": "HMGDDYFTILGIERDATTDEIRSAYRRLSKKIHPDAQGSSALFRQVQEAYETLIDPSSRARYVAELNASQG", "soluble fraction (log2)": -0.0836}, {"sequence": "HMGDERDRLLLARGKRIYQELIGSDRENVAAALREFEAVLAVNNRRAIHVMRQRLAELFGVYEEFLNEEFL", "soluble fraction (log2)": -1.29}, {"sequence": "HMGDEVAVTEILVKVGDTVEADQSLLTVEGDKASMEVPAPFAGVVKAIQVQLGDKVVTGSPIMLFEV", "soluble fraction (log2)": -0.88}, {"sequence": "HMGDFNYVMPDFRGLEAHDVSSFLNRNGFLLRPTEHEVSFTQRPGLILMHYPEPGYPFSRSSPITLVVS", "soluble fraction (log2)": -0.932}, {"sequence": "HMGDGMEVWVNGSPVNLTGKDSFIFVDIFDFIDFDLTASKGRLIVIKVNGEYAEYTRPLHNGDTIEIYWEE", "soluble fraction (log2)": -0.638}, {"sequence": "HMGDGRVGVITASIAYEYAKEVFPEGTSFLKLGLTFPLPMDLIRDFASKVEKLYVIEELEPL", "soluble fraction (log2)": -1.72}, {"sequence": "HMGDHYTALGLSIDATPEEIRSAYFLAARRSHPDANPDAQTTEWFLRVQEAYDILSNPRRRAEYDASLP", "soluble fraction (log2)": -1.46}, {"sequence": "HMGDKRPIAVGDYVKLEGQDTPGQVLSISGKNATVGFGMLKTTVKLDRLRHTMAKPQTGASAGVR", "soluble fraction (log2)": "≥ 0.43"}, {"sequence": "HMGDKVTIPNLIDMKLTDAQNQYKPQGFSIVKNGERESDKEAGTILEQDKAAGTEISGKDIRIFVVVSSGS", "soluble fraction (log2)": -0.302}, {"sequence": "HMGDLAAAGNHTLEVMGFPQHPDESYRHFVGNGIPKLIERMLPAGHDKETEQKAYDIFMEYYSAHK", "soluble fraction (log2)": -0.439}, {"sequence": "HMGDPMAIMQLSSNTTPEYWEAYQKYHIQEYEQSNFIRYVNGISVLDDDFVDKVLITIDQHGRIFSELKS", "soluble fraction (log2)": -2.5}, {"sequence": "HMGDSEMPVSEVVRLAKLDQISSIEISGTKLTIITNNLETYTSRIEENSTIIEILQRAGVDIGGLEIYPHG", "soluble fraction (log2)": -0.983}, {"sequence": "HMGDVSGFLRGVLADGPVPAKTVFSEASGAGYSRDQIQRAARKIGVERRKTGMAGGWVWELEP", "soluble fraction (log2)": -0.038}, {"sequence": "HMGEAYVVPNVKNKTLGEAQLALHNQKLEGLVVDSSYVKGLPDGMILDQNPAGGARVKEGRTIYLTITTS", "soluble fraction (log2)": -0.146}, {"sequence": "HMGEDFPYVAYATDSVRLRSKPSSSGDILAVIRQGDAVLITGSDGNYKIVEYEGRKGYVISAFLSQTP", "soluble fraction (log2)": -0.438}, {"sequence": "HMGEDLTIDQLAAEVDMTVRNIRAHQARGLLPPPTIKGRIGYYGPLHRRRLQQIRAMQEEGLNLAAIAKVV", "soluble fraction (log2)": -0.533}, {"sequence": "HMGEDPYQMLGLTRQASDEEVRLAWRKLMRENHPDSLASRGVPQEFVKRATEQVAQINAAWDRIKRERG", "soluble fraction (log2)": -0.0212}, {"sequence": "HMGEELIEIQNLRNKERREAEAILKNLDLVPVIQEQFDDTVPINRVITTDPGPDSTVKKGTTVMIYVSKGP", "soluble fraction (log2)": 0.289}, {"sequence": "HMGEENLKYPLLTDGSVKTTVLEAIDKDEKWLREELAKQGYDDLSKLFLVDYLGGQLVVTPY", "soluble fraction (log2)": -0.887}, {"sequence": "HMGEESIAELISNPKLSDAKRTVILDLLSRGLTVDQIKPYIQSDDPYTAEQLQFELYKLFFTQI", "soluble fraction (log2)": -1.34}, {"sequence": "HMGEGRVRLAQEAANRFMTAMAGDRPGFEEAGRALFAGDRARFHAETEGWPEDIRDHARRLAEPALQ", "soluble fraction (log2)": -0.0593}, {"sequence": "HMGEIILVPDVKAQGVSDARYTLNQAGLDAVIADSSYNRNSPPGAVLEQMPAPGSKVKSGHAIYLIINTT", "soluble fraction (log2)": 0.0604}, {"sequence": "HMGELTSILVATKQIEPGETLSSSNTQVKSWISDLIPEGAITNPESVMGRTVSSVIGVGMPVVSLHLR", "soluble fraction (log2)": 0.0354}, {"sequence": "HMGELVIPPLRERTVVDAVAEAERLGFVVQVEPVASSLPEGRVLGQSPEPGTRARKSQVVVLQVSRG", "soluble fraction (log2)": 0.00536}, {"sequence": "HMGEPLTVVAAAGGDRLDRWLAGQLAGRSRAEIQRWIEAGQVTLAGRSLKASYRLSAGDAIDVAIPPPE", "soluble fraction (log2)": -0.0638}, {"sequence": "HMGEPVEIEEPITVRSLSEALGLKSSAIISHLMRQGVFATINQNLDKETAELIAAEYGIELRIK", "soluble fraction (log2)": -0.0783}, {"sequence": "HMGETDDDFRELEEFVEKTKFDKLGTFMYSKEEGTPAARLPEQIHGNTKKSRYNKIMSIQQKVSNEN", "soluble fraction (log2)": -0.897}, {"sequence": "HMGETPEILRDWEAAQNAVNDMLSKYAPGGYMGKIIYPLLTPLKERLEAGERTPDLYNAIVEAT", "soluble fraction (log2)": -0.763}, {"sequence": "HMGETYTIPDVRGYTLEDAMELPEIKENGFTIIEGRQIVDADVPVGQIISQTPEAESIAKSNVKEITVNIS", "soluble fraction (log2)": -0.367}, {"sequence": "HMGEVPVETKDGIKVHVHTVDKSQTAYGISRLYNITLNELYESNPEAKLELSIGQKLYFPVK", "soluble fraction (log2)": -0.426}, {"sequence": "HMGEVVRAPMPGNVLKMEVAQGQEVEEGDLLLVLEAMKMENDIVAPKGGIVIQLVVDKGMVVETDDPLVVI", "soluble fraction (log2)": -0.509}, {"sequence": "HMGEWNSVFSVPSSVVDKHLKTASSVYVKVLLVILRNAGNRISDQQISEQLSVPVDEVQEAIRYWNAAGIF", "soluble fraction (log2)": -0.816}, {"sequence": "HMGFAANLSRLMEYHNISMYRLAKEVGVHQTTVKNWLEEESEPKIAALEKIVGLLGVSYDELLG", "soluble fraction (log2)": -1.72}, {"sequence": "HMGFLTGNTQGEVNRKTKNQMVNIFLPTTPNPTSGFLLFVPKKDILRLTMTVEEGIKMIISAGMLTPS", "soluble fraction (log2)": 0.0322}, {"sequence": "HMGFTDREREIIRNDLVATGRELFGTFGLKKTSIEDLTKAVGIAQGSFYTFFNSKEELYLEVMDREGEA", "soluble fraction (log2)": -1.47}, {"sequence": "HMGGALSPDFGWLAMIDPDEGRAITLYDIASGEAIAVLDTHEARVAALAWSPDGTRLASGDQNGLIVQWEI", "soluble fraction (log2)": -1.43}, {"sequence": "HMGGEEPYGSGSLRLAAGAVVPSGYTIKGNEDSMLYHTTESPWYKQTIAEVWFNAESAAQRAGFTRWDAKD", "soluble fraction (log2)": -0.672}, {"sequence": "HMGGEIGSGKNGYVAFYKGKKVDVKADSMYGAQKTAAKYFNAKKEYDVNVVLAEVDGKQYVQS", "soluble fraction (log2)": 0.151}, {"sequence": "HMGGGVERLTPRQREVLGYMAEGRSNSWIAGAIGFSEKAVVQHTSKIYDALGLAVDADDHRRVLAVLRYLT", "soluble fraction (log2)": -1.07}, {"sequence": "HMGGKWKLRILWHIHHGDTRFSTLKRGIPEISEKILAQQLRELEEHQLIKRRVVTVMPPHVVYEL", "soluble fraction (log2)": -0.518}, {"sequence": "HMGGLAEIILNAIEIEGGFLPITDKSAPELIQSRLGMSKKAFKEAVGTLYKNRDIAIEPNGLRKI", "soluble fraction (log2)": -0.162}, {"sequence": "HMGGLALAEREVVEWLSQRNLLPSPDVVARAAAHPDGLGWLERSLAVLEGPRLFLGLGDLVPEP", "soluble fraction (log2)": -1.02}, {"sequence": "HMGGLAVQLVHAMTDQIRSGRLKAGDKLPTEAAIMKDFGVSRTVVREAISRLQASGWVDTRHGIGTFVLHQ", "soluble fraction (log2)": 0.188}, {"sequence": "HMGGLIEPLSARELEVLELMSLGKTNQEIARDLVVASGTIKAHAASIYRKLDAANRTEAVTHARELGIL", "soluble fraction (log2)": -0.814}, {"sequence": "HMGGPEVLELEDVKVGSPGPDEIKVTNHAIGLNYIDTYHRSGLYPLKLPSGIGLEAAGKVEEIGSNV", "soluble fraction (log2)": -0.511}, {"sequence": "HMGGQEEALNRLVLRELLGTLEKKERDLIVRRYFYDQTQTKIAEALGISQVQVSRMEKRILKKMREGF", "soluble fraction (log2)": -0.833}, {"sequence": "HMGGRSARVRRAVLDAVVELLGEGGVRAVTIAEVAKRSGVNASSIYRRWRSIDALILDAAQDL", "soluble fraction (log2)": -0.578}, {"sequence": "HMGGSDIYLGAFNIPQGSVRVTSGGQALTEGKDFTIDYNLGSVKIINQAILNSGIPVSVSYENNAG", "soluble fraction (log2)": -0.294}, {"sequence": "HMGGSLADAKRFLADLLADGPVPAKGVRADADGAGHTWPTIRRAQKALGIEATKTGMKGGWVWALPR", "soluble fraction (log2)": 0.00461}, {"sequence": "HMGGSVYTVQKGDTLWSIAKEQLGSPLRYAEIYDLNKDVIEEAARGRGKKDSSNGHWLVVGTSLQIPEAT", "soluble fraction (log2)": -0.077}]}]}
